Test system: Escherichia coli TOP10
Assay: shrunken log2 fold change of peptide-encoding DNA abundance (4.5 h post-induction vs induction); higher = less antimicrobial activity (less host growth inhibition)
Settings: time post-induction: 4.5 h; library: site-saturation at positions 5, 18, 19, 20
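Also: peptides expressed intracellularly from a pBAD plasmid library in pooled LB shake-flask culture, induced with 0.3% L-arabinose, DNA abundance read by NGS, three biological replicates, DESeq2 with apeglm shrinkage.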

RRIRHRPPRLPRPRPRPWLDPRP
shrunken log2 fold change: -0.377

RRIRHRPPRLPRPRPRPWLKPRP
shrunken log2 fold change: -0.185

RRIRHRPPRLPRPRPRPWLPPRP
shrunken log2 fold change: -0.0823

RRIRHRPPRLPRPRPRPWLVPRP
shrunken log2 fold change: -0.0872

RRIRHRPPRLPRPRPRPWNMPRP
shrunken log2 fold change: -0.14

RRIRHRPPRLPRPRPRPWNYPRP
shrunken log2 fold change: -0.617

RRIRHRPPRLPRPRPRPWRDPRP
shrunken log2 fold change: -0.154

RRIRHRPPRLPRPRPRPWRWPRP
shrunken log2 fold change: 0.16

RRIRHRPPRLPRPRPRPWTLPRP
shrunken log2 fold change: -0.00151

RRIRHRPPRLPRPRPRPWTPPRP
shrunken log2 fold change: -0.502

RRIRHRPPRLPRPRPRPWVIPRP
shrunken log2 fold change: 0.00302

RRIRHRPPRLPRPRPRPWVYPRP
shrunken log2 fold change: -0.125

RRIRHRPPRLPRPRPRPWWAPRP
shrunken log2 fold change: -0.162

RRIRHRPPRLPRPRPRPWWEPRP
shrunken log2 fold change: -0.015

RRIRHRPPRLPRPRPRPWWGPRP
shrunken log2 fold change: -0.0666

RRIRHRPPRLPRPRPRPWYAPRP
shrunken log2 fold change: -0.41

RRIRHRPPRLPRPRPRPYCDPRP
shrunken log2 fold change: -0.313

RRIRHRPPRLPRPRPRPYCWPRP
shrunken log2 fold change: -0.352

RRIRHRPPRLPRPRPRPYGTPRP
shrunken log2 fold change: -1.41

RRIRHRPPRLPRPRPRPYGVPRP
shrunken log2 fold change: -0.256

RRIRHRPPRLPRPRPRPYGYPRP
shrunken log2 fold change: -0.22

RRIRHRPPRLPRPRPRPYHCPRP
shrunken log2 fold change: -0.316

RRIRHRPPRLPRPRPRPYHSPRP
shrunken log2 fold change: -0.0215

RRIRHRPPRLPRPRPRPYIWPRP
shrunken log2 fold change: -0.431

RRIRHRPPRLPRPRPRPYKNPRP
shrunken log2 fold change: -0.646

RRIRHRPPRLPRPRPRPYMMPRP
shrunken log2 fold change: -3.2

RRIRHRPPRLPRPRPRPYMVPRP
shrunken log2 fold change: -0.0357

RRIRHRPPRLPRPRPRPYNEPRP
shrunken log2 fold change: 0.0187

RRIRHRPPRLPRPRPRPYNIPRP
shrunken log2 fold change: -0.244

RRIRHRPPRLPRPRPRPYPCPRP
shrunken log2 fold change: -0.152

RRIRHRPPRLPRPRPRPYPNPRP
shrunken log2 fold change: -0.014

RRIRHRPPRLPRPRPRPYPQPRP
shrunken log2 fold change: -0.546

RRIRHRPPRLPRPRPRPYPRPRP
shrunken log2 fold change: -0.27

RRIRHRPPRLPRPRPRPYQIPRP
shrunken log2 fold change: -0.484

RRIRHRPPRLPRPRPRPYQLPRP
shrunken log2 fold change: -0.0135

RRIRHRPPRLPRPRPRPYRKPRP
shrunken log2 fold change: -1.23

RRIRHRPPRLPRPRPRPYSHPRP
shrunken log2 fold change: -0.129

RRIRHRPPRLPRPRPRPYSSPRP
shrunken log2 fold change: -0.0579

RRIRHRPPRLPRPRPRPYTKPRP
shrunken log2 fold change: 0.0561

RRIRHRPPRLPRPRPRPYVHPRP
shrunken log2 fold change: -0.312

RRIRHRPPRLPRPRPRPYVLPRP
shrunken log2 fold change: -0.14

RRIRHRPPRLPRPRPRPYWFPRP
shrunken log2 fold change: -0.963

RRIRHRPPRLPRPRPRPYWMPRP
shrunken log2 fold change: -1.63

RRIRHRPPRLPRPRPRPYYAPRP
shrunken log2 fold change: -0.417

RRIRHRPPRLPRPRPRPYYNPRP
shrunken log2 fold change: -1.28

RRIRHRPPRLPRPRPRPYYSPRP
shrunken log2 fold change: -0.191

RRIRIRPPRLPRPRPRPAAAPRP
shrunken log2 fold change: 0.286

RRIRIRPPRLPRPRPRPACIPRP
shrunken log2 fold change: -0.69

RRIRIRPPRLPRPRPRPACLPRP
shrunken log2 fold change: -0.228

RRIRIRPPRLPRPRPRPADKPRP
shrunken log2 fold change: -0.194

RRIRIRPPRLPRPRPRPAEVPRP
shrunken log2 fold change: -0.041

RRIRIRPPRLPRPRPRPAGYPRP
shrunken log2 fold change: -0.038

RRIRIRPPRLPRPRPRPAHEPRP
shrunken log2 fold change: 0.215

RRIRIRPPRLPRPRPRPAHIPRP
shrunken log2 fold change: -0.063

RRIRIRPPRLPRPRPRPALEPRP
shrunken log2 fold change: -0.0629

RRIRIRPPRLPRPRPRPALTPRP
shrunken log2 fold change: 0.0227

RRIRIRPPRLPRPRPRPAMCPRP
shrunken log2 fold change: -0.182

RRIRIRPPRLPRPRPRPAMRPRP
shrunken log2 fold change: 1.37

RRIRIRPPRLPRPRPRPAMSPRP
shrunken log2 fold change: -0.0178

RRIRIRPPRLPRPRPRPAMTPRP
shrunken log2 fold change: -0.366

— the supplement of paper PMC9112550, “Optimization of the antimicrobial peptide Bac7 by deep mutational scanning” (BMC Biology, 2022)
